Experimental data: patent US20230257435A1, “Wound Healing Composition and Uses Thereof” (AGENCY FOR SCIENCE, TECHNOLOGY AND RESEARCH, priority 2020, published 2023)

Columns and labels:
[1] = test system: keratinocytes and dermal fibroblasts; test: In vitro scratch wound-healing assay; format: cell-based, human and mouse
Procedure: A confluent monolayer of control and Agrin depleted cells in a 6-well plate was subjected to a unidirectional scratch using a 20 μl pipette tip. This was followed by washing with 1×PBS at room temperature and incubation in complete culture media at 37° C. and 5% CO2 with or without sAgrin used as indicated. Phase contrast images of the wound area were taken periodically at the indicated time-points. For some wound-healing migration assays, keratinocytes were cultured on either soft or stiff substrates within a stencil barrier (Nalge Nunc., Inc) for 18 h. Upon removal of the barrier, the cells were allowed to migrate and imaged using an Axiovert 200 inverted microscope at indicated time-points.

mouse skin wounds = test: Cytokine and chemokine expression in mouse skin wounds; format: in vivo
Procedure: The photographs of a representative wound for each condition is shown above. The respective p values for the selected group of significant genes are represent in tabular form (n=3 mice per group, Multiple t tests). (b) Western blot analysis in the mouse skin treated as in (a) showing the protein expression of selected proteins. GAPDH served as a loading control (n=2 independent mice wounds were analyzed for each group).
Indicated cells post-manipulation were washed twice with cold Phosphate buffered saline (PBS) and lysed with cold 1% NP-40 lysis buffer supplemented with 1× protease inhibitor cocktail (Roche Applied Biosciences) for 15 mins at 4° C. […] The density of the various bands was quantified using the Image-J software.
Total RNA was extracted from indicated cells using Qiagen RNeasy mini kit as per the manufacturer's recommended protocol. […] For RNA-sequencing, the RNA quality was analyzed on a Bioanalyzer instrument (Agilent) using the Agilent RNA 6000 Pico Kit. […] Purified libraries were quantified by qPCR (KAPA Library Quantification Kit for Illumina, Roche). […] The condition of sequencing was represented by a single read high output run at 75 bp read length. Raw reads from fastq files were aligned to the hg38 genome using STAR 2.6.1d. […] The relative number of reads mapping to each gene was quantified with htseqcount on features from the gtf file gencode.v29.annotation.gtf. […]

BJ and HaCaT cells = test: Transwell migration assay; format: cell-based, human; conditions: sAgrin 10 μg/ml as chemoattractant
Procedure: FIG. 5 are assays showing effects of Agrin knockdown on 2D migration of keratinocytes and dermal fibroblasts. (a) RT-PCR analysis for Agrin gene expression in BJ and HaCaT cells treated with either control or Agrin siRNA. Data presented as mean+/−s.d. These knockdown cells were subsequently used for transwell migration assays. Migration was analyzed for a batch of Agrin depleted cells in response to sAgrin (10 μg/ml) in the bottom chambers as a chemoattractant (third panels). Migrating were quantified using ImageJ and represented as mean+/−s.d. (n=3, Students ‘t’ test, p=0.0004, 0.0003, and 0.0005, respectively). Scale bar: 20 μm. (b) Control, Agrin depleted, and Agrin knockdown BJ or primary mouse dermal fibroblasts (DF) cells pre-treated with 10 μg/ml sAgrin for 18 h were subjected to scratch wound assays. Representative bright-field images showing relative migration are presented at the indicated time-points. The mean non-migrated area+/−s.d. was quantified using ImageJ (n=3, Students ‘t’ test, *p<0.05, **p<0.004, ***p<0.0005, ****p=0.000002, ****p<0.000001, respectively). Scale bar: 20 μm. A Western blot verifying the knockdown of Agrin in DF is also shown with GAPDH as loading control. […] Results are quantified as in panel (b) (n=3, Students ‘t’ test, ****p<0.000001, **p<0.005, *p<0.05, respectively, all other p values are represented in the panels). […]

B1: sAgrin: C-terminus recombinant Agrin fragment containing 8 amino acid 'Z8' insert and LG3 domain (SEQ ID NO: 7), His-tagged, expressed in E. coli (protein)
chain: DTLAFDGRTFVEYLNAVTESELANEIPVEKALQSNHFELSLRTEATQGLVLWSGKATERADYVALAIVDGHLQLSYNLGSQPVVLRSTVPVNTNRWLRVVAHREQREGSLQVGNEAPVTGSSPLGATQLDTDGALWLGGLPELPVGPALPKAYGTGFVGCLRDVVVGRHPLHLLEDAVTKPELRPCPTP
modifications: His tag
[1]; Agrin knockdown fibroblasts and keratinocytes, 10 μg/ml sAgrin 18 h
  scratch wound-responsive migration velocities (rescue of Agrin knockdown): in part, rescued
[1]; HaCaT, 10 μg/ml sAgrin 18 h
  migration of MMP 1 and 10 knockdown keratinocytes: not restored by sAgrin treatment
[1]; HaCaT/mouse keratinocytes
  migratory rates with increasing concentrations of sAgrin: accelerated migratory rates
[1]; human and mouse keratinocytes, 10 μg/ml sAgrin 18 h
  migration of MMP12 depleted keratinocytes: failed to stimulate migration
[1]; sAgrin 10 μg/ml, 4 h
  K17 expressing leader keratinocyte migration in vitro: enhanced the K17 expressing leader keratinocyte migration
Mouse skin wounds; vs BSA and Collagen
  protein expression of TGF-β1, VEGF-A and MCP-1: augmented protein expression(s) of TGF-β1, VEGF-A and MCP-1
Mouse skin wounds; within 48 h post-injury, vs BSA or Collagen
  mRNA of TGF-β1, VEGF-A, MCP-1, MIP-1β and MIP-2: significantly induced
BJ and HaCaT cells
  trans-well migration (rescue of Agrin knockdown): in part, rescued
